Test [1] has as its target T1, hECD: full-length extracellular region of human MuSK (E22 to T495) with C-terminal Avi- and His6-tags (human, UniProt O15146 22-495, biotinylated in vitro using the BirA enzyme).
T1 construct: also called human ECD; not shown: Avi- and His6-tags
T1 sequence: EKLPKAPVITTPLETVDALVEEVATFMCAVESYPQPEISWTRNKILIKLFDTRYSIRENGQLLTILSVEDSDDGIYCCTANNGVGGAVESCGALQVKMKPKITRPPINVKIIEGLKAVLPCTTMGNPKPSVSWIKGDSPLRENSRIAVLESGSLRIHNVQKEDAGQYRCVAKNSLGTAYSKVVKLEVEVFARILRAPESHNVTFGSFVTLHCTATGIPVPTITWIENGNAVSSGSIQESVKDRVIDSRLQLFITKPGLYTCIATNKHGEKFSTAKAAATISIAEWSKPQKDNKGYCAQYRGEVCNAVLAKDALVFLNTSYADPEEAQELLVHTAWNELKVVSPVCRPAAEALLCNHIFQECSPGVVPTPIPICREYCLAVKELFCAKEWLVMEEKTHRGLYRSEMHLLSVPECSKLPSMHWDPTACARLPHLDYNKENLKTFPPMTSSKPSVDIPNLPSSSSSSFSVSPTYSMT
The test is described as follows: bead-binding titration, Fab format: antigen immobilized on streptavidin beads, MFI by flow cytometry, curve is the 1:1 fit.

Test [2] addresses T2, hFz: Fz domain and C-terminal flanking sequence of human MuSK (K314-T495) with C-terminal Avi- and His6-tags (human, UniProt O15146 314-495, biotinylated in vitro using the BirA enzyme).
T2 construct: also called human Fz; not shown: Avi- and His6-tags
T2 sequence: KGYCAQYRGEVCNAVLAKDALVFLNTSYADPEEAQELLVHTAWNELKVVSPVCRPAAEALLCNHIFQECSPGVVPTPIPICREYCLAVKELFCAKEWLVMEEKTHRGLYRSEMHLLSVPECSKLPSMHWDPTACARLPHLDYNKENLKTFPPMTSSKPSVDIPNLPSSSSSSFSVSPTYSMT
The test is described as above.

Test [3] addresses T3, mFz: Fz domain and C-terminal flanking sequence of mouse MuSK (D307 to T494) with C-terminal Avi- and … (mouse, UniProt Q61006 307-494, limits assumed, biotinylated in vitro using the BirA enzyme).
T3 construct: also called mouse Fz; not shown: Avi- and His6-tags
T3 sequence (looked up): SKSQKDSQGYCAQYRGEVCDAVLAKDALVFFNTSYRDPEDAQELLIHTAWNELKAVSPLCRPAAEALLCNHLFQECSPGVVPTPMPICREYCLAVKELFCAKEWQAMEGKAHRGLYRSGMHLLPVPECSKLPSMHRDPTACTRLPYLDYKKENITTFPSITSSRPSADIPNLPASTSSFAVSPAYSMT
The test is described as above.

Test [4] deals with T4, mECD: full-length extracellular region of mouse MuSK (E22 to T494) with C-terminal Avi- and His6-tags (mouse, UniProt Q61006 22-494, biotinylated in vitro using the BirA enzyme).
T4 construct: range 22-494; also called mouse ECD; not shown: Avi- and His6-tags
T4 sequence (looked up): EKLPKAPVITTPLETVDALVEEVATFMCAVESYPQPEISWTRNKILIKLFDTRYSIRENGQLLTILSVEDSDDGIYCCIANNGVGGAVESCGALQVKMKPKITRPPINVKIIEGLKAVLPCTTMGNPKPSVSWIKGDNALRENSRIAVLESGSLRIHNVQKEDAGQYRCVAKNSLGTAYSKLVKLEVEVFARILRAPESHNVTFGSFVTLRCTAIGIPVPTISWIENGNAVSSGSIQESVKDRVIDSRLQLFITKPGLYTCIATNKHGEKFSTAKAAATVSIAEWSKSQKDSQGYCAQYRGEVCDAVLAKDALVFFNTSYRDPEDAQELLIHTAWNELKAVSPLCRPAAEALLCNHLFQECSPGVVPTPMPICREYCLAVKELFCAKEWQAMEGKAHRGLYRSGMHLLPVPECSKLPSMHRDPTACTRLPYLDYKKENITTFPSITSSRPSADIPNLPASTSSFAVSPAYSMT
Described as above.

The target in test [5] is T1, hECD: full-length extracellular region …. The test is described as follows: bead-binding assay, Fab format: biotinylated antigen on streptavidin beads, flow cytometry, 1:1 fit; average ± s.d., n=3. In general terms: In flow cytometry, cells or beads pass a laser one at a time.
For test [6], the target named is T2, hFz: Fz domain and C-terminal flanking …. The description is as above.
For test [7], the target named is T3, mFz: Fz domain and C-terminal flanking …. Described as above.
Test [8] addresses T4, mECD: full-length extracellular region …. The description is as above.

Consider two molecules from US20230151091A1 (NEW YORK UNIVERSITY, published 2023).

B1: X2 Fab (Fab, V domains shown)
VH: EVQLVESGGGLVQPGGSLRLSCAASGFTVSSSSIHWVRQAPGKGLEWVASISSSYGSTSYADSVKGRFTISADTSKNTAYLQMNSLRAEDTAVYYCARSEGDRYVSGYMGMDYWGQGTLVTVSS
VL: DIQMTQSPSSLSASVGDRVTITCRASQSVSSAVAWYQQKPGKAPKLLIYSASSLYSGVPSRFSGSRSGTDFTLTISSLQPEDFATYYCQQSGVWLITFGQGTKVEIK
notes: Fab format
With B1, the “EC50 (read off the curve)” value in test [1] was roughly 900 pM; in test [2], roughly 500 pM; in test [3] it was roughly 500 pM; in test [4], roughly 600 pM. Besides, the Kd in test [5] came out at 860 pM; in test [6], 530 pM; in test [7], 450 pM; in test [8], 700 pM.

B2: X3 Fab (Fab, V domains shown)
VH: EVQLVESGGGLVQPGGSLRLSCAASGFTISSSSIHWVRQAPGKGLEWVASISSSSGYTYYADSVKGRFTISADTSKNTAYLQMNSLRAEDTAVYYCARSWYEMWMSGYFGFDYWGQGTLVTVSS
VL: DIQMTQSPSSLSASVGDRVTITCRASQSVSSAVAWYQQKPGKAPKLLIYSASSLYSGVPSRFSGSRSGTDFTLTISSLQPEDFATYYCQQSSSSLITFGQGTKVEIK
notes: Fab format
Take B2: the 50% effective concentration (EC50 (read off the curve)) is roughly 200 pM in test [1], roughly 100 pM in test [2], roughly 300 pM in test [3] and roughly 400 pM in test [4]. Moreover, the Kd in test [5] turned out to be 160 pM; in test [6], 110 pM; in test [7], 290 pM; in test [8], 400 pM.

What is called EC50 (read off the curve) is the midpoint of the concentration-response curve. Low readings indicate a more potent agent, high ones a less potent agent. The term Kd denotes the equilibrium constant for the complex coming apart. A lower Kd goes with a tighter complex.
